How the values were obtained:
Settings in all cases: both partners purified
[1] = molecular target: T1, norovirus GII.17 P‐domain (Norovirus GII.17, GenBank AKI30060 …, strain); experiment: SPR; Biacore 8K; antibody immobilised, P-domain as analyte; 1:1 kinetic model
T1 construct: Cloned into a modified pMAL-c6T vector; also called P‐domain of GII.17 strain; norovirus P‐domain GII.17 strain; source: E. coli BL21 (DE3), purified (Ni-NTA Agarose, SEC Superdex 75)
T1 chain: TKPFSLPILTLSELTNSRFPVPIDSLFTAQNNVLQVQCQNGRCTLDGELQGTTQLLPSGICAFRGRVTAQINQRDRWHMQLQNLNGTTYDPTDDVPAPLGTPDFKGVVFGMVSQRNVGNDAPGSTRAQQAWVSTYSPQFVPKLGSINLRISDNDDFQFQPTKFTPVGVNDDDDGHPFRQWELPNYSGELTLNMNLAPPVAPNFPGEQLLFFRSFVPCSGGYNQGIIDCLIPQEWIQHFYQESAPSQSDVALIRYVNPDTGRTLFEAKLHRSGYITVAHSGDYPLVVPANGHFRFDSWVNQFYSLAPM

[2] = molecular target: T1, norovirus GII.17 P‐domain; experiment: SPR; Biacore 8K; P-domain immobilised on CM5 by amine coupling, antibody as analyte; PBST, 30 uL/min, 180 s association, 600 s dissociation; 1:1 kinetic model
[3] = molecular target: T1, norovirus GII.17 P‐domain; experiment: SPR; GII.17 P-domain immobilised on CM5 at 458 r.u., antibody as analyte; PBST; 1:1 kinetic model
[4] = molecular target: T1, norovirus GII.17 P‐domain; experiment: SPR; GII.17 P-domain immobilised on CM5 at 3830 r.u., antibody as analyte; PBST; 1:1 kinetic model
[5] = molecular target: T1, norovirus GII.17 P‐domain; experiment: SPR; GII.17 P-domain immobilised on CM5 at 922 r.u., antibody as analyte; PBST; 1:1 kinetic model
[6] = molecular target: T1, norovirus GII.17 P‐domain; experiment: SPR; GII.17 P-domain immobilised on CM5 at 138 r.u., antibody as analyte; PBST; 1:1 kinetic model
[7] = molecular target: T1, norovirus GII.17 P‐domain; experiment: SPR; GII.17 P-domain immobilised on CM5 at 4577 r.u., antibody as analyte; PBST; 1:1 kinetic model
[8] = molecular target: T1, norovirus GII.17 P‐domain; experiment: SPR; GII.17 P-domain immobilised on CM5 at 1059 r.u., antibody as analyte; PBST; 1:1 kinetic model

B1: 14C2 IgG (antibody, V domains shown)
VH: QAYLQQSGAELMKPGASMRISCKATGYTFSNYWIEWVKQRPGHGLEWIGEILPGGGGTDYNEKFKGKATFTADTSSNTAYMQLSSLTSEDSAVYYCARSTFYGYDGGLYYFPMDYWGQGTSVTVSP
VL: DIVMTQSPAIMSASPGEKVTMTCSTNSSISYMHWYQQKPGTSPKRWIYDTSKLASGVPARFSGSGSGTSYSLTISSMEAEDAATYYCHQRSSYPWTFGGGTKLEIK
notes: variable domain of the heavy chain of 14C2; light chain of 14C2; Mouse IgG2b; also called IgG antibody 14C2; source: mouse hybridoma supernatant, purified (HiTrap Protein G HP, SEC Superdex 200); copies: 2 + 2
[1]
  Kd: 1.55 nM
  koff: 0.000129 s⁻¹
  kon: 82900 M⁻¹ s⁻¹
[2]
  Kd: 0.000921 nM
  koff: 1.07e-07 s⁻¹
  kon: 116000 M⁻¹ s⁻¹

B2: 1‐arm IgG (Fab region of IgG antibody 14C2) (Fab, V domains shown)
VH: QAYLQQSGAELMKPGASMRISCKATGYTFSNYWIEWVKQRPGHGLEWIGEILPGGGGTDYNEKFKGKATFTADTSSNTAYMQLSSLTSEDSAVYYCARSTFYGYDGGLYYFPMDYWGQGTSVTVSP
VL: DIVMTQSPAIMSASPGEKVTMTCSTNSSISYMHWYQQKPGTSPKRWIYDTSKLASGVPARFSGSGSGTSYSLTISSMEAEDAATYYCHQRSSYPWTFGGGTKLEIK
notes: Fab region of the heavy chain of 14C2; light chain of 14C2; gene codon-optimised for mammalian cells; also called 14C2 Fab; source: Expi293 cells, purified (Ni-NTA Agarose, SEC Superdex 75); not shown: His tag (inferred from the Ni-NTA purification)
[3]
  Kd: 241 nM
  koff: 0.00246 s⁻¹
  kon: 10200 M⁻¹ s⁻¹
[4]
  Kd: 135 nM
  koff: 0.0034 s⁻¹
  kon: 25100 M⁻¹ s⁻¹
[5]
  Kd: 281 nM
  koff: 0.0024 s⁻¹
  kon: 8550 M⁻¹ s⁻¹
[6]
  Kd: 170 nM
  koff: 0.0025 s⁻¹
  kon: 14700 M⁻¹ s⁻¹
[7]
  Kd: 167 nM
  koff: 0.0026 s⁻¹
  kon: 15600 M⁻¹ s⁻¹
[8]
  Kd: 204 nM
  koff: 0.00297 s⁻¹
  kon: 14600 M⁻¹ s⁻¹
